The source of these data is patent US20250255960A1 (HRAIN BIOTECHNOLOGY, published 2025).

The target of this assay is T1, recombinant human CD27-his protein (human, UniProt P26842 21-192, limits assumed).
T1 construct: Bought; also called commercial CD27; recombinant human CD27 protein; not shown: his tag
T1 sequence (looked up): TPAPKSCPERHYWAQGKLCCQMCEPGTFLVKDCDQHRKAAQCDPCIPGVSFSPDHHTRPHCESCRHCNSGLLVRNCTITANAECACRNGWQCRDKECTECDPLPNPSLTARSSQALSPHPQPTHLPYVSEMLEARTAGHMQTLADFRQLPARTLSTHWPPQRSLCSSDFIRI
The experiment in a line: ELISA; CD70-alFc coated in 4-fold dilution from 100 ng, 0.1 ug/mL CD27-his in solution, HRP anti-his-tag detection; coated CD70-alFc titrated, CD27-his fixed at 0.1 µg/mL. The protocol:
ELISA activity identification of recombinant human CD70-alFc protein with commercial CD27: recombinant human CD70-alFc protein was coated in a 4-fold gradient dilution package in an ELISA plate, the first well was coated with 100 ng, and sequentially diluted 4-fold (100 uL/well), incubated at 4° C. overnight, washed 3 times with 200 uL PBST the next day, and blocked with 1% BSA/PBS for 1 hour. The blocking solution was removed, 100 μL 0.1 μg/mL recombinant human CD27-his protein was added to each well, and incubated at 37° C. for 1 hour. After washing 3 times with 200 μL PBST, horseradish peroxidase-labeled rabbit anti-his-tag antibody (100 μL per well) diluted 1:4000 was added, and incubated at 37° C. for 1 hour. After washing 3 times with 200 μL PBST, 100 μL TMB chromogen solution was added for development at 37° C. for 10 minutes, 100 μL 1M hydrochloric acid was added to stop the reaction, and the absorbance value at OD₄₅₀ was obtained. The analysis results are shown by FIG. 2 and Table 1.
(An ELISA detects its analyte on a solid surface through an enzyme-linked reagent.)

B1: recombinant human CD70-alFc protein (Fc fusion)
chain: QRFAQAQQQLPLESLGWDVAELQLNHTGPQQDPRLYWQGGPALGRSFLHGPELDKGQLRIHRDGIYMVHIQVTLAICSSTTASRHHPTTLAVGICSPASRSISLLRLSFHQGCTIASQRLTPLARGDTLCTNLTGTLLPSRNTDETFFGVQWVRPELKTPQPQSQPECRCPKCPAPELLGGPSVFIFPPKPKDVLSISGRPEVTCVVVDVGQEDPEVSFNWYIDGAEVRTANTKPKEEQFNSTYRVVSVLPIRHQDWLTGKEFKCKVNNKALPAPIERTISKAKGQTREPQVYALAPHREELAKDTVSVTCLVKDFYPVDINIEWQRNGQPESEGTYATTPPQLDNDGTYFLYSKLSVGKNTWQRGETFTCVVMHEALPNHYTQKSITQSSGK
notes: range 39-193; Made in 293T cells; also called CD70-alIgG1Fc fusion protein; recombinant human CD70 protein
As for B1, the EC50 amounted to 8.69 ng/mL.

The term EC50 denotes the concentration that produces a half-maximal response.
